Data on two molecules can be found in US20130217572A1, “SPECIFIC DELIVERY OF AGROCHEMICALS” (VRIJE UNIVERSITEIT BRUSSEL, priority 2010, published 2013).

The target in assay [1] is T1, potato lectin (Sigma) (potato, UniProt Q9S8M0 23-323).
T1 construct: Bought glycoprotein, coated on ELISA plates
T1 sequence (looked up): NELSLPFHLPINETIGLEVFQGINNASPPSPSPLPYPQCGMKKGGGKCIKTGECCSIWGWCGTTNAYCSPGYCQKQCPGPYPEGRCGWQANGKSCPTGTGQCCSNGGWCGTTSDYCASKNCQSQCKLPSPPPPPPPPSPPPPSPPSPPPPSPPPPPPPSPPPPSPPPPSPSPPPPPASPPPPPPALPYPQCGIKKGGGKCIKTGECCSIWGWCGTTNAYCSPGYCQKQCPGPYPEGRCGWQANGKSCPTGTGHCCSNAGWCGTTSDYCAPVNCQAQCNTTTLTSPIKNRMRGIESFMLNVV
In words: microcapsule retention; G: amine capsules, BS3 one-step, 1 ug VHH/cm2; potato lectin coat 10 ug/ml; 100% coverage.

For assay [2], the target named is T1, potato lectin (Sigma). In words: microcapsule retention; K: amine capsules, BS3 two-step, 1 ug VHH/cm2; potato lectin coat 100 ug/ml; 10% coverage.
Assay [3] has as its target T1, potato lectin (Sigma). As to the kind of experiment: microcapsule retention; G: amine capsules, BS3 one-step, 1 ug VHH/cm2; potato lectin coat 100 ug/ml; 100% coverage.
Assay [4] addresses T1, potato lectin (Sigma). In words: microcapsule retention; L: amine capsules, BS3 two-step, 0.1 ug VHH/cm2; potato lectin coat 10 ug/ml; 10% coverage.
Assay [5] deals with T1, potato lectin (Sigma). As to the kind of experiment: microcapsule retention; C: carboxyl capsules, EDC/Sulfo-NHS, 1 ug VHH/cm2; potato lectin coat 100 ug/ml; 100% coverage.
The target of assay [6] is T1, potato lectin (Sigma). As to the kind of experiment: microcapsule retention; D: carboxyl capsules, EDC/Sulfo-NHS, 0.1 ug VHH/cm2; potato lectin coat 10 ug/ml; 10% coverage.
In assay [7] the target is T1, potato lectin (Sigma). As to the kind of experiment: microcapsule retention; D: carboxyl capsules, EDC/Sulfo-NHS, 0.1 ug VHH/cm2; potato lectin coat 100 ug/ml; 10% coverage.
A further assay deals with gum arabic. As to the kind of experiment: VHH binding to gum arabic in ELISA. The arrangement: species or system acacia tree. As to the method: Titration of VHH antibody fragments was performed on ELISA plates (Maxisorp, Nunc) coated with 100 μl per well 100 μg/ml gum arabic in 50 mM carbonate pH9.6. Plates were coated at 4° C. overnight and coating was continued at room temperature for 1 hour on the next day. Plates were washed three times with PBS/0.05%-TWEEN®-20 and blocked with 5% skimmed milk in PBS for 1 hour. Four-fold serial dilutions of purified VHH antibody fragments were prepared in 1% MPBS/0.05%-TWEEN®-20 in polypropylene 96-well plates. Antibody concentrations ranged from 3 μg/ml to 12 ng/ml. Antibody dilutions were transferred to the gum arabic-coated plates and VHH antibody fragments were allowed to bind for 1 hour at room temperature. Bound VHH were detected with sequential incubations with monoclonal mouse anti-histidine antibodies (Abd Serotec) and rabbit anti-mouse IgG whole molecule antibodies conjugated with alkaline phosphatase (RaM/AP) (Sigma) in 1% MPBS/0.05%-TWEEN®-20. Unbound antibodies were removed by washing three times with PBS/0.05%-TWEEN®-20 after each antibody incubation. The plates were washed an additional two times with PBS and 100 μl pNPP disodium hexahydrate substrate (Sigma) was added to each well. The absorbance at 405 nm was measured and plotted as function of antibody concentration (see Table 1).
On the technique in general: ELISA stands for enzyme-linked immunosorbent assay.

A further assay addresses T2, potato lectin (Solanum tuberosum, UniProt Q9S8M0).
T2 sequence (Q9S8M0 23-323): T1 sequence (looked up)
In words: VHH binding to potato lectin in ELISA. The conditions noted are these: blank wells; VHH 3 μg/ml. As to the method:
ELISA plates (Maxisorp, Nunc) coated with 100 μl per well 100 μg/ml potato lectin (Sigma) in PBS were coated at 4° C. overnight and coating was continued at room temperature for 1 hour on the next day. Plates were washed three times with PBS/0.05%-TWEEN®-20 and blocked with 5% skimmed milk in PBS for 1 hour. VHH (3 μg/ml) were transferred to the potato lectin-coated plates and VHH antibody fragments were allowed to bind for 1 hour at room temperature. Bound VHH were detected with sequential incubations with monoclonal mouse anti-histidine antibodies (Abd Serotec) and rabbit anti-mouse IgG whole molecule antibodies conjugated with alkaline phosphatase (RaM/AP) (Sigma) in 1% MPBS/0.05%-TWEEN®-20. Unbound antibodies were removed by washing three times with PBS/0.05%-TWEEN®-20 after each antibody incubation. The plates were washed an additional two times with PBS and 100 μl pNPP disodium hexahydrate substrate (Sigma) was added to each well and the absorbance at 405 nm was measured (see Table 2).

The target in assay [8] is unrelated antigens. As to the kind of experiment: VHH-coupled Uvitex OB microcapsules retained on wells coated with unrelated antigen; 4% surface coverage.
Assay [9] concerns the target T1, potato lectin (Sigma). As to the kind of experiment: VHH-coupled Uvitex microcapsules on potato lectin-coated wells; 25-fold less microcapsules applied. As to the method:
An ELISA-like assay was performed using high bind half area microplates (Greiner Bio-One) coated with 5 μg/well potato lectin. Control wells included blank wells or wells coated with unrelated antigens. Plates were washed three times with PBS with 0.05%-TWEEN®-20 and blocked with 5% skimmed milk in PBS for 1 to 2 hours. VHH-coupled Uvitex-containing microcapsules were diluted to appropriate densities in 1% skimmed milk in PBS with 0.05%-TWEEN®-20. Five-fold serial dilution series were prepared and allowed to bind to the surface to compare binding of microcapsules coupled with monovalent or bivalent VHH. Microcapsules were added to the antigen-coated or control wells and allowed to bind for 1 hour. Unbound microcapsules were removed by washing five times with PBS with 0.05%-TWEEN®-20. The bottoms of ELISA plate wells were analyzed for bound microcapsules on a macrozoom microscope system (Nikon). Microcapsules were counted using Volocity image analysis software (Perkin Elmer). A DAPI filter was used to visualize Uvitex microcapsules.
The surface area of microcapsules with coupled bivalent VHH was 15-fold above the surface area of blank microcapsules applied at this microcapsule density while the surface area of microcapsules with monovalent VHH was only six-fold above the surface area of blank microcapsules applied at this microcapsule density. […]

Assay [10] addresses unrelated antigens. As to the kind of experiment: VHH-coupled lambda-cyhalothrin microcapsules retained on wells coated with unrelated antigen; 4% surface coverage.

Take Control VHH: the microcapsule counts (microcapsules) in the assay with potato lectin (Sigma) [1] is 104; with potato lectin (Sigma) [2], 285; in the assay with potato lectin (Sigma) [3] it was 150; with potato lectin (Sigma) [4], 186; with potato lectin (Sigma) [5] it was 297; in the assay with potato lectin (Sigma) [6], 118. This molecule had a microcapsule counts (microcapsules) with potato lectin (Sigma) [7] of 125.

B1: VHH 3E6 (VHH)
VHH: QVQLQESGGGLVQPGGTLSLSCAASGFNVRWYGMGWFRQAPGKEREGVACISALQETTAYADSVKGRFTLSRDNPKNTLSLQMNNLQPEDTGVYYCATTDCDDSSRMTYTSYLGQGTQVTVSS
notes: also called Monovalent VHH 3E6
Regarding B1, the “absorbance at 405 nm” value in the assay with gum arabic (Table 2, gum arabic coat, VHH 3 μg/ml) is 0.882; with gum arabic ([VHH] 0.0117188 μg/ml (0.78125 nM), gum arabic 100 μg/ml), 0.392; with gum arabic ([VHH] 0.04688 μg/ml (3.125 nM), gum arabic 100 μg/ml) it was 0.905; in the assay with gum arabic ([VHH] 0.1875 μg/ml (12.5 nM), gum arabic 100 μg/ml) it was 1.518; in the assay with gum arabic ([VHH] 0.75 μg/ml (50 nM), gum arabic 100 μg/ml), 1.904; in the assay on gum arabic ([VHH] 3 μg/ml (200 nM), gum arabic 100 μg/ml), 2.154. Besides, the “absorbance at 405 nm” value was 0.090 in the assay with gum arabic ([VHH] 3 μg/ml (200 nM), no gum arabic coat (−)) and 0.067 in the assay with potato lectin. In the assay with unrelated antigens [8], this molecule registered an area of bound microcapsules of 23.5. In addition, the “fold of surface area above blank microcapsules” value in the assay with potato lectin (Sigma) [9] was found to be 6 fold. The counts of bound microcapsules (microcapsules) in the assay with unrelated antigens [10] was found to be 386.
